These results are taken from article PMC2151181 (The Journal of Cell Biology, 1999).

For the test, the target named is SNARE core complex (synaptobrevin-II 1–96, syntaxin-1A 180–262, SNAP-25A 1–83, SNAP-25A 130–206) (rat, UniProt P63045;P32851;P60881-2). Put plainly: native gel or EMSA.

B1: synaptotagmin III C2A-C2B, residues 295–569 (domain or fragment)
chain: APCGRISFALRYLYGSDHLVVRILQALDLPAKDSNGFSDPYVKIYLLPDRKKKFQTKVHRKTLNPIFNETFQFSVPLAELAQRKLHFSVYDFDRFSRHDLIGQVVLDNLLELAEQPPDRPLWRDILEGGSEKADLGELNFSLCYLPTAGRLTVTIIKASNLKAMDLTGFSDPYVKASLISEGRRLKKRKTSIKKNTLNPTYNEALVFDVAPESVENVGLSIAVVDYDCIGHNEVIGVCRVGPEAADPHGREHWAEMLANPRKPVEHWHQLVEEKT
On to B1, for which the binding result is given as “binds”.
